Measurements from US20260234255A1 (Genmab, published 2026).
Positions count from the first letter of the chain named. In names and notes the source's numbering stands.

T1: human CD30 (human, UniProt P28908 19-595)
T1 construct: The same molecule is used for CD30 on HL/ALCL/NHL cell lines; also called huCD30; TNFRSF8
T1 sequence: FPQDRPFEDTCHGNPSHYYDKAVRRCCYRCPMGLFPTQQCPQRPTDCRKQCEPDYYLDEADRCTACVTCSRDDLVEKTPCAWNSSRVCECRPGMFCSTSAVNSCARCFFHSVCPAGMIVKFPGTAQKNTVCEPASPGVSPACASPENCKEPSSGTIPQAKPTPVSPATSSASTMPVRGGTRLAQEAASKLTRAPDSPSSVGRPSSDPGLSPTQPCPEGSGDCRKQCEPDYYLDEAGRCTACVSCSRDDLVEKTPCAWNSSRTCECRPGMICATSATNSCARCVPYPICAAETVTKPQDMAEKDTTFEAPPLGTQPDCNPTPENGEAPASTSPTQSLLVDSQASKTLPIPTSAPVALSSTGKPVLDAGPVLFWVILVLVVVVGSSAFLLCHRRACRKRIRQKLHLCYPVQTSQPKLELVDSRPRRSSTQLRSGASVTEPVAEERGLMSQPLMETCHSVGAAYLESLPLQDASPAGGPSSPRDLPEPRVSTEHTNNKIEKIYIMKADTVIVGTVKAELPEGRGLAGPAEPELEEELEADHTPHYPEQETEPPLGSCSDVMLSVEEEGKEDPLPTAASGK

T2: cynomolgus monkey (Macaca fascicularis) CD30 (cynomolgus monkey, UniProt P28908 19-595 (human entry))
T2 construct: also called mfCD30
T2 chain: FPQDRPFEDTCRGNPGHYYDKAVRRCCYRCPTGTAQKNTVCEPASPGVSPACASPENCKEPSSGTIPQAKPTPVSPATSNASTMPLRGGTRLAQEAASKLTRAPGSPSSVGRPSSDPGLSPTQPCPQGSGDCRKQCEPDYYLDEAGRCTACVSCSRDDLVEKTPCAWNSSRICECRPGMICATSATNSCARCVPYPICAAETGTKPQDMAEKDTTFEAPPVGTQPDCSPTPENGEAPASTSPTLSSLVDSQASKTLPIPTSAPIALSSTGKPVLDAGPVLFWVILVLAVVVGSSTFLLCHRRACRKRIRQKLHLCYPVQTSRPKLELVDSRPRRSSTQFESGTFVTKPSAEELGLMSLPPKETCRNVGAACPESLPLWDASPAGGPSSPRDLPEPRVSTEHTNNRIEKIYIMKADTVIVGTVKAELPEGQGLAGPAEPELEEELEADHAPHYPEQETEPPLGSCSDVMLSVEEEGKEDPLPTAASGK

B1: bsG1-huCD3-H101G-FEALxCD30-MDX060-FEAR (bispecific antibody, human IgG1, kappa, lambda)
heavy 1: not shown
light 1: not shown
heavy 2: QVQLQQWGAGLLKPSETLSLTCAVYGGSFSAYYWSWIRQPPGKGLEWIGDINHGGGTNYNPSLKSRVTISVDTSKNQFSLKLNSVTAADTAVYYCASLTAYWGQGSLVTVSSASTKGPSVFPLAPSSKSTSGGTAALGCLVKDYFPEPVTVSWNSGALTSGVHTFPAVLQSSGLYSLSSVVTVPSSSLGTQTYICNVNHKPSNTKVDKRVEPKSCDKTHTCPPCPAPEFEGGPSVFLFPPKPKDTLMISRTPEVTCVVVAVSHEDPEVKFNWYVDGVEVHNAKTKPREEQYNSTYRVVSVLTVLHQDWLNGKEYKCKVSNKALPAPIEKTISKAKGQPREPQVYTLPPSREEMTKNQVSLTCLVKGFYPSDIAVEWESNGQPENNYKTTPPVLDSDGSFFLYSRLTVDKSRWQQGNVFSCSVMHEALHNHYTQKSLSLSPG
light 2: DIQMTQSPTSLSASVGDRVTITCRASQGISSWLTWYQQKPEKAPKSLIYAASSLQSGVPSRFSGSGSGTDFTLTISSLQPEDFATYYCQQYDSYPITFGQGTRLEIKRTVAAPSVFIFPPSDEQLKSGTASVVCLLNNFYPREAKVQWKVDNALQSGNSQESVTEQDSKDSTYSLSSTLTLSKADYEKHKVYACEVTHQGLSSPVTKSFNRGEC
notes: Variant of m7 whose CD3 arm carries H101G
B2: bsG1-b12-FEALxCD30-MDX060-FERR (bispecific antibody, human IgG1, kappa)
heavy 1: QVQLVQSGAEVKKPGASVKVSCQASGYRFSNFVIHWVRQAPGQRFEWMGWINPYNGNKEFSAKFQDRVTFTADTSANTAYMELRSLRSADTAVYYCARVGPYSWDDSPQDNYYMDVWGKGTTVIVSSASTKGPSVFPLAPSSKSTSGGTAALGCLVKDYFPEPVTVSWNSGALTSGVHTFPAVLQSSGLYSLSSVVTVPSSSLGTQTYICNVNHKPSNTKVDKRVEPKSCDKTHTCPPCPAPEFEGGPSVFLFPPKPKDTLMISRTPEVTCVVVAVSHEDPEVKFNWYVDGVEVHNAKTKPREEQYNSTYRVVSVLTVLHQDWLNGKEYKCKVSNKALPAPIEKTISKAKGQPREPQVYTLPPSREEMTKNQVSLTCLVKGFYPSDIAVEWESNGQPENNYKTTPPVLDSDGSFLLYSKLTVDKSRWQQGNVFSCSVMHEALHNHYTQKSLSLSPG
light 1: EIVLTQSPGTLSLSPGERATFSCRSSHSIRSRRVAWYQHKPGQAPRLVIHGVSNRASGISDRFSGSGSGTDFTLTITRVEPEDFALYYCQVYGASSYTFGQGTKLERKRTVAAPSVFIFPPSDEQLKSGTASVVCLLNNFYPREAKVQWKVDNALQSGNSQESVTEQDSKDSTYSLSSTLTLSKADYEKHKVYACEVTHQGLSSPVTKSFNRGEC
heavy 2: B1 heavy 2 with G231R, A260D
light 2: B1 light 2
notes: Monovalent CD30 control antibody
B3: IgG1-CD30-MDX060-FEAR (antibody)
heavy: B1 heavy 2
light: B1 light 2
notes: Monospecific, bivalent parental antibody; also called IgG1-MDX060-FEAR

How the values were obtained:
[1] = target: T1, human CD30; assay: flow cytometry, Expi293F cells transfected with human CD30
Description: Data are presented as mean fluorescence intensity (MFI) values as determined by flow cytometry of two technical replicates. […] Data are presented as mean fluorescence intensity (MFI) values as determined by flow cytometry of one representative experiment.
Binding of bispecific CD3×CD30 antibodies and monospecific, bivalent CD30 antibodies to the plasma membrane of Expi293 cells transiently transfected with human CD30 or cynomolgus monkey CD30 was analyzed by flow cytometry.

[2] = target: T2, cynomolgus monkey (Macaca fascicularis) …; assay: flow cytometry, Expi293F cells transfected with cynomolgus monkey CD30 (mfCD30)
Description: Cells (3×10⁴ cells/well) were incubated in polystyrene 96-well round-bottom plates (Greiner bio-one, cat. no. 650180) with serial dilutions of antibodies (ranging from 0.005 to 10 μg/mL in 3-fold dilution steps) in 100 μL staining buffer at 4° C. for 30 min. Experiments were performed in technical duplicate. After washing twice in staining buffer, cells were incubated in 50 μL secondary antibody at 4° C. for 30 min. As a secondary antibody, R-PE-conjugated goat-anti-human IgG (Jackson ImmunoResearch, UK; cat. no. 109⁻¹¹⁶-098) diluted 1:400 in staining buffer was used. Cells were washed twice in staining buffer, resuspended in 30 μL staining buffer containing 0.4% EDTA and analyzed on an iQue Screener (Intellicyt Corporation, USA). Binding curves were analyzed using non-linear regression (sigmoidal dose-response with variable slope) using GraphPad Prism V9.0.0 software (GraphPad Software, San Diego, CA, USA).

[3] = target: T1, human CD30; assay: flow cytometry, L-82 cells
[4] = target: T1, human CD30; assay: flow cytometry, HH cells
Description: Cells (3×10⁴ cells/well) were incubated in polystyrene 96-well round-bottom plates (Greiner bio-one, cat. no. 650180) with serial dilutions of antibodies (range 0.0046 to 10 μg/mL in 3-fold dilution steps) in 50 μL staining buffer at 4° C. for 30 min. After washing twice in staining buffer, cells were incubated with 50 μL secondary antibody at 4° C. for 30 min. […] Next, cells were washed twice in staining buffer, resuspended in 100 μL staining buffer supplemented with TO-PRO-3 iodide (Thermo Fisher Scientific; cat. no. T3605; 1:8000 dilution) and analyzed on a FACSCelesta flow cytometer (BD Biosciences, USA). Live cells were gated based on FSC/SSC and absence of TOPRO-3 staining. Binding curves were analyzed by non-linear regression of log-transformed data (sigmoidal dose-response with variable slope, four parameters) using GraphPad Prism V7.02 software (GraphPad Software, San Diego, CA, USA).

[5] = target: T1, human CD30; assay: flow cytometry, DL-40 cells
[6] = target: T1, human CD30; assay: flow cytometry, L-540 cells
[7] = target: T1, human CD30; assay: flow cytometry, L-1236 cells
[8] = target: T1, human CD30; assay: flow cytometry, SUP-M2 cells
[9] = target: T1, human CD30; assay: flow cytometry, JVM-2 cells
[10] = target: T1, human CD30; assay: flow cytometry, SR-786 cells
[11] = target: T1, human CD30; assay: flow cytometry, KM-H2 cells
[12] = target: T1, human CD30; assay: flow cytometry, NCEB-1 cells
[13] = target: T3, human CD3 (human, UniProt P07766 23-207); assay: flow cytometry, primary human T cells
T3 construct: CD3 endogenously expressed on primary human T cells (whole TCR/CD3 complex); also called human CD3 (epsilon)
Description: Cynomolgus monkey PBMCs (Tebu-Bio, The Netherlands; cat. no. PBMCMFA-10) or purified human T cells were plated in polystyrene 96-well round-bottom plates. T cells were derived from human donor buffy coats (Sanquin, Amsterdam, The Netherlands) and isolated using the RosetteSep human T cell enrichment cocktail (Stemcell Technologies, France, cat. no. 15061) according to manufacturer's instructions. […] After washing twice in staining buffer, cells were incubated in 50 μL secondary R-PE-conjugated goat-anti-human IgG antibody at 4° C. for 30 min (1:400 dilution). After washing twice in staining buffer, T cells were stained for T-cell markers CD3 (1:100; Miltenyi biotec, clone 10D12, conjugated to APC), CD4 (1:50; eBioscience, clone OKT4, conjugated to APC-Cy7), CD8 (1:100; Biolegend, clone RPA-T8, conjugated to AF700) and T-cell activation markers CD69 (1:50; BD Biosciences, clone AB2439, conjugated to FITC), CD25 (1:50; eBioscience, clone BC96, conjugated to PE-Cy7) and CD279/PD1 (1:50; BD Biosciences, clone AEH12.2H7, conjugated to BV605). Single stained samples with Ultracomp beads (5 μL; Invitrogen, cat. no. 01-2222-42) were used for compensation adjustments of the flow cytometer. After 30 min of incubation at 4° C., cells were washed twice with staining buffer, resuspended in 100 μL staining buffer and analyzed using a FACS Fortessa (BD Biosciences). […]

[14] = target: T1, human CD30; assay: flow cytometry, HDLM-2 cells
Procedure, shortened: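 CD3×CD30 bispecific antibodies, 3-fold serial dilutions from 0.0046 to 10 μg/mL, incubated with 3×10⁴ SU-DHL-1 (ALCL) or HDLM-2 (HL) cells for 30 min at 4 °C, then secondary antibody 30 min at 4 °C. Live cells gated by FSC/SSC and TO-PRO-3 exclusion; binding curves fitted by four-parameter sigmoidal regression.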

[15] = target: T4, cynomolgus monkey CD3 (cynomolgus monkey, UniProt Q95LI5 22-198); assay: flow cytometry, cynomolgus monkey T cells (PBMCs)
T4 construct: CD3 endogenously expressed on T cells within cynomolgus monkey PBMCs
Description: Cynomolgus monkey PBMCs (Tebu-Bio, The Netherlands; cat. no. PBMCMFA-10) or purified human T cells were plated in polystyrene 96-well round-bottom plates. T cells were derived from human donor buffy coats (Sanquin, Amsterdam, The Netherlands) and isolated using the RosetteSep human T cell enrichment cocktail (Stemcell Technologies, France, cat. no. 15061) according to manufacturer's instructions. […] After washing twice in staining buffer, cells were incubated in 50 μL secondary R-PE-conjugated goat-anti-human IgG antibody at 4° C. for 30 min (1:400 dilution). After washing twice in staining buffer, T cells were stained for T-cell markers CD3 (1:100; Miltenyi biotec, clone 10D12, conjugated to APC), CD4 (1:50; eBioscience, clone OKT4, conjugated to APC-Cy7), CD8 (1:100; Biolegend, clone RPA-T8, conjugated to AF700) and T-cell activation markers CD69 (1:50; BD Biosciences, clone AB2439, conjugated to FITC), CD25 (1:50; eBioscience, clone BC96, conjugated to PE-Cy7) and CD279/PD1 (1:50; BD Biosciences, clone AEH12.2H7, conjugated to BV605). Single stained samples with Ultracomp beads (5 μL; Invitrogen, cat. no. 01-2222-42) were used for compensation adjustments of the flow cytometer. After 30 min of incubation at 4° C., cells were washed twice with staining buffer, resuspended in 100 μL staining buffer and analyzed using a FACS Fortessa (BD Biosciences). Data were processed using FlowJo (BD Biosciences).

T3 sequence (P07766 23-207 limits assumed): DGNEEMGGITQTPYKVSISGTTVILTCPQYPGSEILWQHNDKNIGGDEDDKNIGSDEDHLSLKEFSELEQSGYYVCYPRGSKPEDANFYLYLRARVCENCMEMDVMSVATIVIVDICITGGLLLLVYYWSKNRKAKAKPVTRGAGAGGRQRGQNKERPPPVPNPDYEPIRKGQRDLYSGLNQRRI
T4 sequence (Q95LI5 22-198): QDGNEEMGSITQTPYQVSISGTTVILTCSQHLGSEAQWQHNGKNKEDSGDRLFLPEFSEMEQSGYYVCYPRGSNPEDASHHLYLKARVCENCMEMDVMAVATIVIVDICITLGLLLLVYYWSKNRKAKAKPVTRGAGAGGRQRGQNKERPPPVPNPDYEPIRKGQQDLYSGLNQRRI

Binder | binding result [1] | binding result [2] | EC50 (read off the curve) [3] | EC50 (read off the curve) [4] | EC50 (read off the curve) [5] | EC50 (read off the curve) [6] | EC50 (read off the curve) [7] | EC50 (read off the curve) [8] | EC50 (read off the curve) [9] | EC50 (read off the curve) [10] | EC50 (read off the curve) [11] | EC50 (read off the curve) [12] | binding result [13] | EC50 (read off the curve) [14] | binding result [15]
B1 | binds | binds | – | – | – | – | – | – | – | – | – | – | – | – | –
B2 | – | – | ~0.2 µg/mL | ~0.4 µg/mL | ~0.3 µg/mL | ~0.5 µg/mL | ~0.2 µg/mL | ~0.2 µg/mL | ~0.1 µg/mL | ~0.3 µg/mL | ~0.1 µg/mL | ~0.2 µg/mL | – | – | –
B3 | – | binds | – | – | – | – | – | – | – | – | – | – | no binding (tested: 10 ug/mL) | ~0.2 µg/mL | no binding (tested: 10 ug/mL)
